Assays:
[1] = system: T2 cells to which an HSP105-derived peptide had been exogenously bound; experiment: IFN-γ ELISPOT of HLA-A2-restricted HSP105-specific T cell clones; assay type: cell-based; details: coculture with HLA-A2 T2 cells in the presence of the peptide, 20 hours
Experimental: HSP105-HLA-A2 Dextramer was not capable of being sufficiently stained, thus being unavailable for detection of binding T cells. […] CD107a-positive CD8 T cells were selected by single sorting, and cultured on allofeeder cells to establish T cell clones.
The established T cell clones were cocultured with target cells (T2 cells) to which an HSP105-derived peptide had been exogenously bound for 20 hours, and the antigen stimulation-dependent IFN-γ productions were evaluated. The antigen specificities were evaluated by using cells to which a HIV-derived peptide had been bound as a negative control.

[2] = system: T2 cells to which the peptide had been exogenously bound
Experimental: (§1) Target cells were labeled with a fluorescent dye (calcein) and cocultured with each T cell clone for 4 hours, and the cytotoxic activities against target cells were evaluated on the basis of attenuation of fluorescence as an indicator. […] The cytotoxic activities were evaluated with cancer cell lines endogenously expressing HSP105 as targets. Caski cells and SiHa-A2 cells were used as HSP105-positive cell lines, and an SW620 cell line and HepG2 cell line were used as HSP105-negative cell lines.

Experimental for CasKi cell line: as §1
Experimental for SW620 cell line: as §1
Experimental for SiHaA2 cell line: as §1

B1: 10C9: HLA-A2-restricted T cell clone/TCR recognizing HSP105-derived peptide; SEQ ID NO: 202, 203 (protein, listed as Homo sapiens)
chain 1: MSLSSLLKVVTASLWLGPGIAQKITQTQPGMFVQEKEAVTLDCTYDTSDPSYGLFWYKQPSSGEMIFLIYQGSYDQQNATEGRYSLNFQKARKSANLVISASQLGDSAMYFCAMRDRNTGNQFYFGTGTSLTVIP
chain 2: MGFRLLCCVAFCLLGAGPVDSGVTQTPKHLITATGQRVTLRCSPRSGDLSVYWYQQSLDQGLQFLIQYYNGEERAKGNILERFSAQQFPDLHSELNLSSLELGDSALYFCASSVEVYNEQFFGPGTRLTVL
cytotoxic activity (SW620 cell line): No significant cytotoxic activity | antigen-specific IFN-γ production capability [1]: strong IFN-γ production capability | cytotoxic activity (SiHaA2 cell line): No significant cytotoxic activity | cytotoxic activity (CasKi cell line): significant cytotoxic activity | damaging (cytotoxic) activity [2]: exhibited damaging activity

B2: 7B9: HLA-A2-restricted T cell clone/TCR recognizing HSP105-derived peptide; SEQ ID NO: 195, 196 (protein, listed as Homo sapiens)
chain 1: METLLGVSLVILWLQLARVNSQQGEEDPQALSIQEGENATMNCSYKTSINNLQWYRQNSGRGLVHLILIRSNEREKHSGRLRVTLDTSKKSSSLLITASRAADTASYFCATDTGGAQKLVFGQGTRLTINP
chain 2: MDSWTLCCVSLCILVAKHTDAGVIQSPRHEVTEMGQEVTLRCKPISGHDYLFWYRQTMMRGLELLIYFNNNVPIDDSGMPEDRFSAKMPNASFSTLKIQPSEPRDSAVYFCASSPDRGETQYFGPGTRLLVL
cytotoxic activity (SW620 cell line): No significant cytotoxic activity | antigen-specific IFN-γ production capability [1]: strong IFN-γ production capability | cytotoxic activity (SiHaA2 cell line): No significant cytotoxic activity | cytotoxic activity (CasKi cell line): significant cytotoxic activity

B3: 11B9: HLA-A2-restricted T cell clone/TCR recognizing HSP105-derived peptide; SEQ ID NO: 193, 194 (protein, listed as Homo sapiens)
chain 1: MACPGFLWALVISTCLEFSMAQTVTQSQPEMSVQEAETVTLSCTYDTSESDYYLFWYKQPPSRQMILVIRQEAYKQQNATENRFSVNFQKAAKSFSLKISDSQLGDAAMYFCAYRIPGAGSYQLTFGKGTKLSVIP
chain 2: MGTRLLCWVVLGFLGTDHTGAGVSQSPRYKVAKRGQDVALRCDPISGHVSLFWYQQALGQGPEFLTYFQNEAQLDKSGLPSDRFFAERPEGSVSTLKIQRTQQEDSAVYLCASSPGLAGGAQETQYFGPGTRLLVL
antigen-specific IFN-γ production capability [1]: largely lower reactivity than the other clones

B4: 10G7: HLA-A2-restricted T cell clone/TCR recognizing HSP105-derived peptide; SEQ ID NO: 197, 198 (protein, listed as Homo sapiens)
chain 1: MWGVFLLYVSMKMGGTTGQNIDQPTEMTATEGAIVQINCTYQTSGFNGLFWYQQHAGEAPTFLSYNVLDGLEEKGRFSSFLSRSKGYSYLLLKELQMKDSASYLCAVRALREAGTALIFGKGTTLSVSS
chain 2: MDTWLVCWAIFSLLKAGLTEPEVTQTPSHQVTQMGQEVILRCVPISNHLYFYWYRQILGQKVEFLVSFYNNEISEKSEIFDDQFSVERPDGSNFTLKIRSTKLEDSAMYFCASSQNREAFFGQGTRLTVV
cytotoxic activity (SW620 cell line): No significant cytotoxic activity | antigen-specific IFN-γ production capability [1]: strong IFN-γ production capability | cytotoxic activity (SiHaA2 cell line): No significant cytotoxic activity | cytotoxic activity (CasKi cell line): significant cytotoxic activity | damaging (cytotoxic) activity [2]: exhibited damaging activity
